Data taken from patent publication US20190284258.

System: T1, Haemadipsa sylvestris antithrombotic peptide Sylvestin
T1 sequence: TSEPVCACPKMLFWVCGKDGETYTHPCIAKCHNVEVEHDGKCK

| Substance | enzyme kinetics, chromogenic substrate, OD 405 nm; sample 10 µM | enzyme kinetics, chromogenic substrate, OD 405 nm |
| --- | --- | --- |
| plasminogen | had no inhibitory effect on thrombin, plasminogen FXa or the like | – |
| FXa | had no inhibitory effect on thrombin, plasminogen FXa or the like | – |
| FXIIa | – | it can inhibit FXIIa and kallikrein |
| kallikrein | – | it can inhibit FXIIa and kallikrein |
| thrombin | had no inhibitory effect on thrombin, plasminogen FXa or the like | – |
